The test system of this data set is MS2 coat protein. Put plainly: apparent KD of MS2 coat protein; designed switch direction (-1 OFF switch, 1 ON switch): 1; higher = weaker reporter binding. In short, it runs like this:
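For each design, the apparent KD is the median over clusters of curves fitted to normalised cluster fluorescence. Clusters held RNA switches with common flanks, transcribed on Illumina chips by stalled E. coli RNA polymerase. These were titrated with SNAP-549-labelled MS2 coat protein, doubling from 0.7 or 1.5 nM to 3 µM, without input, with 200 uM small-molecule ligand, or with an oligonucleotide input.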

[1] abbreviates: input ligand: microRNA oligo, concentration not stated.
Setting [2] is: Eterna round: R95, input ligand: FMN 200 uM.
[3] abbreviates: Eterna round: R95, input ligand: microRNA oligo, concentration not stated.
The mark [4] stands for this setting: Eterna round: R95, input ligand: none.

The record followed here is the supplement of paper PMC9170038.

In the case of “UUGCUCGUGUGAGGAUAUGCAGCCGUUUCGGCUGCAGAAGGUACUAUAAUACAUGAGGAUCACCCAUGUCUCUGUUGUUUGGUG [salish99_SSNG1_r04_930] (Eterna round: R96, puzzle: Same State NG 1)”, the “apparent KD of MS2 coat protein” value reads like this: (input ligand: FMN 200 uM) 69.7 nM; under setting [1], 49.4 nM; (input ligand: none) 63.7 nM.

As to “UUGCUCGUGUGAGGAUAUGCAGCCGUUUCGGCUGCAGAAGGUACUAUAAUACAUGAGGAUCACCCAUGUCUCUGUUGUUUUGUG [salish99_SSNG1_r04_929] (Eterna round: R96, puzzle: Same State NG 1)”, the “apparent KD of MS2 coat protein” value runs as follows: (input ligand: FMN 200 uM) 26.9 nM; under setting [1], 20.8 nM; (input ligand: none) 25.4 nM.

Regarding “UUGCUCGUGUGAGGAUAUGCCGCCGUUUCGGCUGCAGAAGGUACUCUUUUACAUGAGGAUCACCCAUGUCUCUGUUGUUUCGUG [salish99_SSNG1_r04_937] (Eterna round: R96, puzzle: Same State NG 1)”, the “apparent KD of MS2 coat protein” value is 252 nM (input ligand: FMN 200 uM), 96.4 nM under setting [1] and 148 nM (input ligand: none).

For “UUGGGUUUGCGAGGAUAUCGUUUGUGAUUUGAUCGAGAAGGCGCUAUUUAAAUUAUUUUAACAUUACAUGAGGAUCACCCAUGU [JR_SSNG1_Sub022] (Eterna round: R96, puzzle: Same State NG 1)”, the “apparent KD of MS2 coat protein” value under setting [1] was found to be 14.8 nM.

As for “UUGGUGUAGAUACAGGAUAUGUUGCUUGUUACAUGAGGAUCACCCAUGUAUCUAUGAGAUUAAAUGCAGAAGGGUGCACAUCACU [salish99_ss2_r3_091] (puzzle: Same State 2)”, the “apparent KD of MS2 coat protein” value under setting [2] came out at 52.9 nM, the “apparent KD of MS2 coat protein” value under setting [3] is 124 nM and the “apparent KD of MS2 coat protein” value under setting [4] is 169 nM.

For the sequence “UUGUUUUGAAAUUAACAUGAGGAUCACCCAUGUCUUGACACAGAGGAUAUACAUGAAUGUAGGUAGUAGAAGGCUGUUUAGUGU [JR_SSNG3_Sub098] (Eterna round: R96, puzzle: Same State NG 3)”, the “apparent KD of MS2 coat protein” value under setting [1] is 57.2 nM.

As for “UUGUUUUGUAAUUAACAUGAGGAUCACCCAUGUCUUGGCUCAGAGGAUAUACAUGUUUGAUUGUAGUAGAAGGCUGAAUGUUGU [JR_SSNG3_Sub094] (Eterna round: R96, puzzle: Same State NG 3)”, the “apparent KD of MS2 coat protein” value by setting is: (input ligand: FMN 200 uM) 95.2 nM; under setting [1], 96 nM; (input ligand: none) 131 nM.

Take “UUUAGGAGUCAAGGAUAUGCUACCGUUUCGGUAGCAGAAGGUGAUCACAUGAGGAUCACCCAUGUAUGCAUGCGUGAGCGUGCU [JL SSNG1 3.62] (Eterna round: R96, puzzle: Same State NG 1)”: the “apparent KD of MS2 coat protein” value under setting [1] was 24.1 nM.

In the case of “UUUAGUUGCGGGCAGGAUAUGUAUUAAAAUACAUGAGGAUCACCCAUGUGGGACCGAAAAGGUCUACAGAAGGGCCAAUCGCGAC [Laonerce - 21] (puzzle: Same State 2)”, the “apparent KD of MS2 coat protein” value under setting [2] stood at 17.1 nM, the “apparent KD of MS2 coat protein” value under setting [3] was found to be 53.3 nM and the “apparent KD of MS2 coat protein” value under setting [4] is 77.1 nM.

Turning to “UUUAUAUUCAGAGGAUAUUAAAGUAGUAUAACAUAAGAAGGCUGUUUGUUUUGUAAAGUAAUUCUACAUGAGGAUCACCCAUGU [JR_SSNG1_Sub085] (Eterna round: R96, puzzle: Same State NG 1)”, the “apparent KD of MS2 coat protein” value under setting [1] is 15.8 nM.

Regarding “UUUAUUAAUGCAGGAUAUGAUUAACAUGAGGAUCACCCAUGUGGUGUUGUGAGUAAGGAGAGUGAUCAGAAGGGCAUUUUUUUU [JMF's solution 39] (Eterna round: R96, puzzle: Same State NG 2)”, the “apparent KD of MS2 coat protein” value came to 524 nM (input ligand: FMN 200 uM), 430 nM under setting [1] and 402 nM (input ligand: none).

As for “UUUAUUUAUGCAGGAUAUGAUUAACAUGAGGAUCACCCAUGUGGUGUUGUGAGUAAGGAGAGUGAUCAGAAGGGCAUUUUUUUU [JMF's solution 76] (Eterna round: R96, puzzle: Same State NG 2)”, the “apparent KD of MS2 coat protein” value by setting is: (input ligand: FMN 200 uM) 610 nM; under setting [1], 396 nM; (input ligand: none) 487 nM.

With “UUUGGGUGGCUGGAGGAUAUCCUUGUUGUUACAUGAGGAUCACCCAUGUGCCGCGCGGUUCGCGAGGAGAAGGCUGGCGGCCGUU (puzzle: Same State 2)”, the “apparent KD of MS2 coat protein” value under setting [3] came out at 169 nM.

As to “UUUUCGAACCGAGGAUAUCCUUAUAAGAAACAUGAGGAUCACCCAUGUAAAGGGAAUUAUUUGUAGGAGAAGGCGGAUUUUGUU [JR_SSNG2_Sub054] (Eterna round: R96, puzzle: Same State NG 2)”, the “apparent KD of MS2 coat protein” value under setting [1] amounted to 33.9 nM.

As to “UUUUUUUUUUAGAGACAAGCUUUUUGAUCACAUGAGGAUCACCCAUGUCUCGUCUUAUUUUUUUUUUUUUUUUUUUU [BA Sensor hsa-mir-208a - 2 - 4] (puzzle: Sensor for hsa-mir-208a)”, the “apparent KD of MS2 coat protein” value by setting is: under setting [2], 37.3 nM; under setting [3], 17.5 nM; under setting [4], 103 nM.
